Biological target: GRASP65-homologue protein 1 (Grh1) (S. cerevisiae) (UniProt Q04410)
Experiment: circular dichroism + electron paramagnetic resonance

Sequence of UniProt Q04410 (Q04410 whole entry): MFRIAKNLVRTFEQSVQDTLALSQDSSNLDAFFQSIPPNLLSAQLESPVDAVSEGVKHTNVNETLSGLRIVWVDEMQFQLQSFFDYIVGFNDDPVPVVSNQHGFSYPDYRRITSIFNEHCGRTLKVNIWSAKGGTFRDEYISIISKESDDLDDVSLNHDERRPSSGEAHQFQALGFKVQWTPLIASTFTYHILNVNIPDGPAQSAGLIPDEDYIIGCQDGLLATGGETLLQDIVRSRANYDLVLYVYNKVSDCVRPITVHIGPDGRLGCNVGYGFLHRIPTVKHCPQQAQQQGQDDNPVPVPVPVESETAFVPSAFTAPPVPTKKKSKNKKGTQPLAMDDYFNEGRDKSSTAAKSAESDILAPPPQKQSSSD

Acyl-CoA Binding Protein 1 (ACBP) (from UniProt P31787 1-87) (natural protein)
Kd: > 1000 µM
